In experiment [1] the target is recombinant human Bcl-xL, Δ45–84, Δ210–233 variant (human) (UniProt Q07817). Nature of the experiment: fluorescence polarisation; competition: 200 nM f-BH3, 50 nM Bcl-xL, BAD forms varied 0–50 μM; room temperature.
Experiment [2] has as its target T1, recombinant human Bcl-xL, Δ45–84, Δ210–233 variant (human, UniProt Q07817-1 1-209, Δ45–84).
T1 construct: Bcl-xL, human; loop 45-84 deleted and C-terminal residues 210-233 lacking; also called soluble, recombinant Bcl-xL
The experiment is described as above. As to conditions: both partners purified.

For experiment [3], the target named is T2, human pancreatic GCK (Homo sapiens, UniProt P35557).
T2 construct: hexahistidine (N); made in house; host or cells: glucokinase auxotroph BM5340(DE3)
T2 sequence (P35557 1-465): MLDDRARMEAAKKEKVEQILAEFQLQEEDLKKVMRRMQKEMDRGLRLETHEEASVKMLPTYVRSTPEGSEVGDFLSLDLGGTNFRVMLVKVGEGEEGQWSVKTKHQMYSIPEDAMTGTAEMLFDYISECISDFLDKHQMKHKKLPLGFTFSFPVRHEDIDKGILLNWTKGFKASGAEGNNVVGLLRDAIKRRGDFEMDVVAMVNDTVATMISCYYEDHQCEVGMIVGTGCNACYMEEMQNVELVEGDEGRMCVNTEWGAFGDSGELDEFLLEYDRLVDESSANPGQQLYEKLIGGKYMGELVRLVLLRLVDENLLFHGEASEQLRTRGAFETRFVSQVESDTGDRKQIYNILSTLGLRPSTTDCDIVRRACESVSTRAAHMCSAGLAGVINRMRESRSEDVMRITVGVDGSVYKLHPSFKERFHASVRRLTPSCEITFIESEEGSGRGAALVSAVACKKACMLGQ
Description: GCK activity, G6PDH-linked assay (lab's routine assay, 25°C). Type of experiment: biochemical. As to conditions: for Increase in GCK activity relative to unmodified / wild-type protein: only at glucose concentrations below K0.5 (3SD, 3SA), phosphorylated BAD after cleavage of GST tag. The method, then: (§1) Recombinant human pancreatic GCK containing an N-terminal hexahistidine tag was produced in the glucokinase auxotroph BM5340(DE3) and purified using a previously described procedure. TEV protease was expressed as a GST-fusion protein from a pGEX plasmid encoding the S219V variant, provided by David Waugh (Addgene plasmid 8827). Expression was induced with IPTG (1 mM) for 4 h at 30°C. Cell pellets were resuspended in Tris buffer (50 mM, pH 8.0) containing NaCl (100 mM), glycerol (10% v/v), benzamidine (1 mM) and dithiothreitol (10 mM) and lysed via French Press. Polyethyleneimine (0.1%) was added to the lysate and protein was purified on a glutathione-affinity column (GSTrap, GE Sciences). TEV protease was flash frozen and stored at -80°C for up to 1 month.
GCK activity was assayed using a glucose 6-phosphate dehydrogenase (G6PDH)-linked assay at 25°C. 50 nM GCK was assayed in buffer containing HEPES (100 mM, pH 7.4), KCl (50 mM), NADP^+ (0.5 mM), DTT (10 mM), MgCl2 (7 mM), G6PDH (1.5 U) and glucose (0–100 mM) in a total volume of […]. Addition of ATP (6 mM) initiated the reaction. Production of NADPH was measured at 340 nm. To determine the effect of BAD on GCK activity, 5 μL of BAD or buffer control was added to the reaction in a final volume of 100 μL. K0.5 values were determined by fitting to the Hill equation. The effect of BAD on GCK activity is reported as the percent rate increase at individual glucose concentrations, calculated as the average of a minimum of four rates of BAD-containing assays divided by the average of rates of BAD buffer-containing assays. The results represent the average of at least three independent preparations of pure BAD.

Another experiment addresses T3, GCK (Homo sapiens, UniProt P35557).
T3 construct: hexahistidine (N); made in house; host or cells: glucokinase auxotroph BM5340(DE3)
T3 sequence (P35557 1-465): T2 sequence (P35557 1-465)
Nature of the experiment: GCK activity, microplate G6PDH-linked assay as described by Szlyk et al. (37°C). Type of experiment: biochemical. As to conditions: S118D BADGST 5 μM, or pBH3 5 μM; GCK 7.5 nM, 96 well plate; S2 Fig. The method, then: Steady state kinetics were also performed as described by Szlyk, et al.[13]. Briefly, G6PDH-linked assays were performed in clear 96-well plates at 37°C with a SpectraMax M5 microplate reader (Molecular Devices) recording absorbance at 340 nm every 30 s. Reaction mixtures contained GCK (7.5 nM), HEPES (100 mM, pH 7.4), KCl (150 mM), MgCl2(6 mM), DTT (1 mM), NAD (1 mM), BSA (0.05%), G6PDH (2.5 U), glucose (0.5–100 mM), and ATP (5 mM) in the presence or absence of BAD-GST S118D variant (5 μM) or phosphorylated BAD BH3 peptide (5 μM) in a final volume of 100 μL.
GCK (7.5 nM) was assayed in the presence of A. S118D BADGST (5 μM) or B. pBH3 (5 μM) in a 96 well plate using a microplate reader. Buffer conditions were as follows: Ref [13]: 100 mM Hepes, pH 7.4; 150 mM KCl; 1 mM NAD+; 0.05% BSA; 6 mM MgCl2; 1 mM DTT; 2.5 U G6PDH; 5 mM ATP. Optimal GCK conditions: 100 mM Hepes, pH 7.4; 150 mM KCl; 1 mM NADP+; 6 mM MgCl2; 10 mM DTT; 1.5 U G6PDH; 5 mM ATP. (EPS) Click here for additional data file.

The target of a further experiment is T4, Bcl-xL (Homo sapiens, UniProt Q07817, DEL45-84).
T4 construct: made in house
Nature of the experiment: Fluorescence polarization competition with f-BH3 for binding to Bcl-xL. Particulars: ITC and fluorescence polarization assays. The method, then:
Exon 1 of human bcl-xl lacking the C-terminal residues 189–233 was obtained from Stanley Korsmeyer (Addgene plasmid 8755) and site-directed mutagenesis was performed to create the Δ45–84, Δ210–233 variant. Bcl-xL was expressed and purified using a modified procedure described previously. Briefly, Bcl-xL was purified by nickel affinity chromatography and dialyzed against potassium phosphate buffer (20 mM, pH 7.4) containing NaCl (50 mM), EDTA (1 mM), and DTT (10 mM). Protein was applied to a Superdex 200 10/30 HR size-exclusion column, at a flow rate of 0.02 mL/min, to remove aggregate and oligomers prior to binding assays.
A fluorescence polarization assay developed by Zhang, et al. was utilized to measure interactions between BAD and its binding partners. Two 21-residue FITC-labeled peptides containing the BH3 domain of BAD were synthesized and purified to >95% by Peptide2.0 (f-BH3 = NLWAAQRYGRELRRMSDK(FITC)FVD; f-pBH3 = NLWAAQRYGRELRRM(p)SDK(FITC) FVD). Polarization was measured at room temperature with an excitation wavelength of 485 nm and an emission wavelength of 530 nm using a SpectraMax M5 microplate reader (Molecular Devices). Experiments to measure binding constants of the fluorescent peptides to Bcl-xL or GCK were performed in black 96-well plates. Each well contained 15 nM peptide, 60 μL BAD buffer (0.1 M Tris, 0.1 M KCl, 0.5 M arginine, 2.5 mM CHAPS, 5 mM TCEP, 10% glycerol, pH 8.5) and variable concentrations of Bcl-xL (0–2.25 μM) or GCK (0–400 μM) in assay buffer (20 mM phosphate buffer, pH 7.4, 1 mM EDTA, 50 mM NaCl, 10 mM DTT) in a final volume of 120 μL. High GCK concentrations were chosen in an effort to detect a signal indicating a binding event. Assays containing GCK also contained 250 mM glucose. […] Plates were incubated at room temperature in the dark for 15 min prior to polarization measurements.
In general terms: Fluorescence polarisation rises when a labelled molecule tumbles more slowly, as on binding a larger partner.

Experiment [4] addresses T2, human pancreatic GCK. Description: Isothermal titration calorimetry with GCK. As to conditions: GCK (100 μM) titrated into S118D BAD-GST (10–15 μM), 13 μL injections, BAD buffer pH 8.5, 25°C. Type of experiment: binding. The method, then:
as §1
Isothermal titration calorimetry was performed at 25°C using a MicroCal VP-ITC (GE Healthcare) instrument. Bcl-xL (100 μM) in BAD buffer (0.1 M Tris, 0.1 M KCl, 0.5 M arginine, 2.5 mM CHAPS, 5 mM TCEP, 10% glycerol, pH 8.5) was titrated into the calorimeter cell containing size-exclusion chromatography purified BAD-GST (10–18 μM) in 4 μL injections. A 21-residue phosphorylated peptide containing the BH3 domain of BAD was synthesized and purified to >95% by Peptide2.0 (pBH3 = NLWAAQRYGRELRRM(p)SDKFVD). The peptide (300 μM) in potassium phosphate buffer (25 mM) containing KCl (25 mM), TCEP (4 mM) and DMSO (5%) with and without glucose (200 mM) was titrated into the cell containing GCK (10 μM) previously dialyzed against the same buffer. GCK (100 μM) in BAD buffer was titrated into the cell containing S118D BAD-GST (10–15 μM) in 13 μL injections. Data were analyzed using Origin software.
(In general: ITC needs no label: the signal is the heat of the interaction.)

Changes are numbered by the printed parent chain. Numbers in names are those of the source.

T1 sequence (Q07817 other isoform, or with tags, fused parts or gaps Δ45–84 | Δ45–84 | mutant): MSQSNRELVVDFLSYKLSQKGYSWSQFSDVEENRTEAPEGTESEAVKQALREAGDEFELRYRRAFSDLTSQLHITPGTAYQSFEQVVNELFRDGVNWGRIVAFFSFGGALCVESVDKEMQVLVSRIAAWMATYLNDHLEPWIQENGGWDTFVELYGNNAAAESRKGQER
T4 sequence (Q07817 with tags, fused parts or gaps DEL45-84): as the sequence (Q07817 other isoform, or with tags, fused parts or gaps Δ45–84 | Δ45–84 | mutant) above
recombinant human Bcl-xL, Δ45–84, Δ210–233 variant (human), sequence (Q07817 other isoform, or with tags, fused parts or gaps mutant): as the sequence (Q07817 other isoform, or with tags, fused parts or gaps Δ45–84 | Δ45–84 | mutant) above

As to “BAD following cleavage and removal of the GST tag (from UniProt Q92934 1-168) (natural protein)”, the IC50 in experiment [1] was 440 nM.

B1: S75D-S99D-S118D triple variant of BAD-GST (natural protein, human, UniProt Q92934 1-168, looked up)
chain: MFQIPEFEPSEQEDSSSAERGLGPSPAGDGPSGSGKHHRQAPGLLWDASHQQEQPTSSSHHGGAGAVEIRSRHSDYPAGTEDDEGMGEEPSPFRGRSRDAPPNLWAAQRYGRELRRMDDEFVDSFKKGLPRPKSAGTATQMRQSSSWTRVFQSWWDRNLGRGSSAPSQ
notes: BAD, human; 507 bp bad cDNA amplified from the IMAGE clone; triple phosphomimic; also called 3SD; source: E. coli BL21(DE3), purified as BAD-GST; not shown: GST, C-terminal, kept
Take B1: the IC50 in experiment [2] is over 19 µM.

B2: 3SA: BAD-GST variant in which alanine was substituted at the three target serine residues (protein)
chain: B1 chain with D75A, D99A, D118A
modifications: left off: His6, N-terminal, state not stated | GST, C-terminal, kept
notes: BAD-GST variant in which alanine was substituted at the three target serine residues
Consider B2, for which the “Increase in GCK activity relative to unmodified / wild-type protein” value with human pancreatic GCK [3] is listed as “to the same relative extent as wild-type BAD-GST”.

B3: S75D-S99D-S118D triple variant of BAD-GST: S75D-S99D-S118D triple variant of BAD-GST, mimics fully phosphorylated protein (protein)
chain: B1 chain
modifications: left off: His6, N-terminal, state not stated | GST, C-terminal, kept
notes: S75D-S99D-S118D triple variant of BAD-GST, mimics fully phosphorylated protein
Turning to B3, the “Activation of GCK by triple variant” value with human pancreatic GCK [3] (0.78 mM glucose, > 2 μM, comparable to phosphorylated BAD (15%)) was “A comparable degree of activation”. In addition, the “Increase in GCK activity relative to unmodified / wild-type protein” value in the experiment with human pancreatic GCK [3] is given as “to the same relative extent as wild-type BAD-GST”.

B4: S118D variant: S118D phosphomimic variant of BAD-GST (protein)
chain: B1 chain with D75S, D99S
modifications: left off: His6, N-terminal, state not stated | GST, C-terminal, kept
As for B4, in the experiment with GCK, the “Effect on GCK kinetics under Szlyk et al. buffer conditions” value was “did not increase BAD’s effects on GCK kinetics”. Further, in the experiment with Bcl-xL, the “Ability to interact with Bcl-xL (in words)” value is recorded as “significantly impaired in their ability to interact with Bcl-xL”. Also, the “Binding to GCK by ITC” value in the experiment with human pancreatic GCK [4] is “no detectable binding event”.

B5: phosphorylated BAD: phosphorylated BAD after cleavage of the GST tag (protein)
chain: B1 chain with D75S, D99S, D118S
modifications: phosphoserine at 75, 99 and 118 (by PKA, as for phosphorylated BAD-GST); left off: His6, N-terminal, state not stated | GST, C-terminal, cleaved
notes: phosphorylated BAD after cleavage of the GST tag
In the case of B5, the “Increase in GCK activity relative to unmodified / wild-type protein” value in the experiment with human pancreatic GCK [3] is recorded as “to a similar extent as unmodified BAD”.

B6: S118D BAD-GST variant (natural protein, human, UniProt Q92934 1-168, looked up)
chain: B1 chain with D75S, D99S
notes: BAD, human; 507 bp bad cDNA amplified from the IMAGE clone; phosphomimic; also called S118D variant; BAD-GST S118D; source: E. coli BL21(DE3), purified as BAD-GST; not shown: GST, C-terminal, kept
Turning to B6, the IC50 in experiment [2] is over 15 µM.

B7: S75D-S99D double variant of BAD-GST (natural protein, human, UniProt Q92934 1-168, looked up)
chain: B1 chain with D118S
notes: BAD, human; 507 bp bad cDNA amplified from the IMAGE clone; double phosphomimic; source: E. coli BL21(DE3), purified as BAD-GST; not shown: GST, C-terminal, kept
Turning to B7, in experiment [2], the IC50 was 0.087 µM.

What is called IC50 is the point on the concentration scale where inhibition reaches its midpoint.
